Assay [1] concerns the target T1, human CD73 expressed on cells (human PBMC CD8+ T cells and CD19+ B cells); endogenous CD73 of MDA-MB-231 and … (human, UniProt P21589 27-549).
T1 sequence (looked up): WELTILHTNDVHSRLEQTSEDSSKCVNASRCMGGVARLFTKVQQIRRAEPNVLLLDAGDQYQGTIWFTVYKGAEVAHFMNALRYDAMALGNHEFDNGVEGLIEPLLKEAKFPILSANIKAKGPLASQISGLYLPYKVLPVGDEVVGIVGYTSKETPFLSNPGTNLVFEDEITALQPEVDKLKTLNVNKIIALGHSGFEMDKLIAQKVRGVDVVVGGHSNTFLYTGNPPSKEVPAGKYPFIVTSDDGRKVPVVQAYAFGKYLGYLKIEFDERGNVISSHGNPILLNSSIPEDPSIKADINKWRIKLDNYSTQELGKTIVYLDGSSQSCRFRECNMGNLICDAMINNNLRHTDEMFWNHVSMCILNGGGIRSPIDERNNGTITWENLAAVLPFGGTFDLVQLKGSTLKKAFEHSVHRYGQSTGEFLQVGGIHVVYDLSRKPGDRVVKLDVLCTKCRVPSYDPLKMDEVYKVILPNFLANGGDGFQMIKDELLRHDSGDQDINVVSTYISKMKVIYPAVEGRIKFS
Put plainly: cell-based or functional assay.

For assay [2], the target named is T1, human CD73 expressed on cells (human …). The experiment in a line: FACS on human PBMC, binding to CD19+ B cells. The protocol: (§1) The experimental steps are as follows: The PBMCs were resuscitated, centrifuged at 1,200 rpm for 5 min, and the supernatant was discarded, resuspended in complete medium, counted, and incubated overnight at 37° C. The solution was centrifuged at 1,200 rpm for 5 min, cells were harvested, diluted antibody solution was added at 100 μL/well, mixed well, and incubated in a refrigerator at 4° C. for 1 hour. The solution was centrifuged at 750×g for 5 min, the supernatant was discarded, and washed 2 times with 200 μL of 1×PBS (containing 1% BSA and 0.05% NaN3). Anti-human CD3-FITC (2 μL/100 μL), anti-human CD19-PE (2 μL/100 μL) (Biolegend, article number: 302254), anti-human CD8-PerCP Cy5.5 (1 μL/100 μL), anti-human IgG Fc-AF647 (1:300) (Southern Biotech, catalog number: 9040-31) were added, and incubated at 4° C. for 30 minutes. The solution was centrifuged at 750×g for 5 min, the supernatant was discarded, washed once with 200 μL of 1×PBS (including 1% BSA and 0.05% NaN3); resuspended with 300 μL of 1×PBS (including 1% BSA and 0.05% NaN3), transferred to flow tubes, and loaded for testing.

Assay [3] shares this target. The experiment in a line: FACS on human PBMC, binding to CD8+ T cells. The protocol: as §1
Assay [4] has as its target T2, human NT5E-Biotin (NT5E is GenbankID: NP_002517.1, position: 1-552) (human, UniProt P21589 27-552, biotin label (site not stated)).
T2 construct: range 1-552; Recombinant soluble antigen made by Akeso (batch 20160505), biotinylated and captured on streptavidin; also called HNT5E-Biotin; human NT5E (1-552)-Biotin
T2 sequence (looked up): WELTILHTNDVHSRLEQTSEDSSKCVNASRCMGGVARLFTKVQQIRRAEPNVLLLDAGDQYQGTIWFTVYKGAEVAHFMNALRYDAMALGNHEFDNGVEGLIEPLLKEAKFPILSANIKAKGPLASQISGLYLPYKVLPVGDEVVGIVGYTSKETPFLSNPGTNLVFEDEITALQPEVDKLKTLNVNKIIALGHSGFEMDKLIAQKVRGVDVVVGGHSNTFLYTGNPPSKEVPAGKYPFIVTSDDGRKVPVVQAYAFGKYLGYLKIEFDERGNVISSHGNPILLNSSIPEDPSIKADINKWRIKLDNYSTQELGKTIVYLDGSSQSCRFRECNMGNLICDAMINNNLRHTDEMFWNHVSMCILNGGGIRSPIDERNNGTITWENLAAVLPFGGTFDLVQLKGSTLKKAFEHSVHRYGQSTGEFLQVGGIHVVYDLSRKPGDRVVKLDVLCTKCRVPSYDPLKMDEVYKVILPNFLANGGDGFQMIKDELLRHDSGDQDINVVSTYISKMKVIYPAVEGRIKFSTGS
Put plainly: ELISA on streptavidin-captured human NT5E-Biotin; HRP goat anti-mouse IgG. (In general: In an ELISA, binding on a coated surface is turned into a signal by an enzyme label.)

B1: control antibody CPI-006 (Mupadolimab) (antibody, human IgG1, kappa, N297Q, V domains shown)
VH: QVQLVQSGAEVEKPGASVKVSCKASGYTFTSYWITWVRQAPGQGLEWMGDIYPGSGNTNYNEKFKTRVTITADKSTSTAYMELSSLRSEDTAVYYCAKEGGLTTEDYALDYWGQGTLVTVSS
VL: EIVLTQSPATLSLSPGERATLSCRASKNVSTSGYSYMHWYQQKPGQAPRLLIYLASNLESGIPPRFSGSGYGTDFTLTINNIESEDAAYYFCQHSRELPFTFGQGTKVEIKR
notes: made by Akeso
For orientation: EC50 means the concentration that produces a half-maximal response. In the case of B1, the “Inhibition rate EC50 (nM): enzyme activity of CD73 expressed by human PBMC membrane (AMP/ATP CellTiter-Glo read-out)” value in assay [1] turned out to be 0.226 nM. Further, the half-maximal effective concentration (EC50) amounted to 0.108 nM in assay [2] and 0.288 nM in assay [3].

B2: murine anti-CD73 monoclonal antibody 19F3 (antibody, V domains shown)
VH: EVQLQQSGPELVKPGASMRMSCKASGYSFTGYTMNWVKQSHGKNLEWIGLINPYNAGTSYNQKFKGKATLTVDKSSSTAYMELLSLTSEDSAVYYCARSEYRYGGDYFDYWGQGTTLTVSS
VL: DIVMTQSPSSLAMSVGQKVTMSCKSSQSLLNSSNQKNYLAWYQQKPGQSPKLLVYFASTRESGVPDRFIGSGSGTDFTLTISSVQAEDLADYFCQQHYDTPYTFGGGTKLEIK
notes: Mouse hybridoma antibody purified on protein A; also called murine antibody 19F3; Murine 19F3
On to B2, for which a half-maximal effect in assay [4] (EC50) was put at 0.018 nM.

Source of the values: US20240218074A1 (AKESO BIOPHARMA, published 2024).
